What was measured:
Assay in all cases: flow cytometry on cells; 5 × 10^6 CHO745 cells expressing the receptor or chimera incubated with 10 μg of Alexa fluorophore conjugated eE2 in 600 μL PBS at room temperature for 2 h, washed three times with PBS; read-out MFI of Alexa-647; one representative experiment of three
[1] = biological target: hCD81 LEL-ceTSP9 backbone chimera (Caenorhabditis elegans | human) (UniProt P60033)
[2] = biological target: scavenger receptor type B class I (SR-BI) (UniProt Q8WTV0)
Sequence of UniProt Q8WTV0 (Q8WTV0 whole entry): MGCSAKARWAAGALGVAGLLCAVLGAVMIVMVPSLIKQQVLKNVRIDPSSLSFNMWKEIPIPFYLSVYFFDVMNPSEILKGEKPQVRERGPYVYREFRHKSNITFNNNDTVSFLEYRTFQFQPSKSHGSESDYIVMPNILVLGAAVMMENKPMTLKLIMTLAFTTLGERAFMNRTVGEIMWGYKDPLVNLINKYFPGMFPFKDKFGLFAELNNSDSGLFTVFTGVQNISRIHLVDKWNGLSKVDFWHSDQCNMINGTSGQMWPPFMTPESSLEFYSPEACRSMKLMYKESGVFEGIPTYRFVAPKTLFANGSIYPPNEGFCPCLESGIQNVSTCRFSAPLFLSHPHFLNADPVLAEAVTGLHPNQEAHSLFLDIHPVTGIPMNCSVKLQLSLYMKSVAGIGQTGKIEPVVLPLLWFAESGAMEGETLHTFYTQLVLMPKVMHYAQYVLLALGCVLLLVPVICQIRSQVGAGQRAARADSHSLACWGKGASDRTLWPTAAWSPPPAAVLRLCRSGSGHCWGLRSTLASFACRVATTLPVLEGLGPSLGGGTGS

[3] = biological target: hCD81 LEL-hCD9 backbone chimera (human) (UniProt P60033)

Row | Substance | MFI [1] | MFI [2] | fold change of binding against wildtype J6 eE2 [3] [fold]
1 | HCV E2 ectodomain (eE2) from genotype 1a (strain H77) (from UniProt P27958 384-725) (domain or fragment) | 20000 | 22000 | 
2 | HCV E2 ectodomain (eE2) from genotype 2a (strain J6) (from UniProt P26660 384-729) (domain or fragment) | 15000 | 65000 | 
3 | ΔHVR1 J6 eE2 (domain or fragment) |  |  | 3
